The values that follow come from PMC3424567.

One series addresses T1, R.DpnI R231A (UniProt P0A460 1-254, R231A).
T1 sequence: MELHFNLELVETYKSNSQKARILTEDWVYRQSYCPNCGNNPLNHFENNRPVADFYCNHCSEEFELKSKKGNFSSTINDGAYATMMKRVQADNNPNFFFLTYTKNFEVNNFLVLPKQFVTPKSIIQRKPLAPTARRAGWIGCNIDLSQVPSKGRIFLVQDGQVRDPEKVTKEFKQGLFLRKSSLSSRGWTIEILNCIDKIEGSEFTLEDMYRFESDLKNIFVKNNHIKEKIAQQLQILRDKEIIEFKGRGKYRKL
Briefly: filter binding.

The target of a further series is T2, R.DpnI wH domain (UniProt P0A460 181-254).
T2 sequence: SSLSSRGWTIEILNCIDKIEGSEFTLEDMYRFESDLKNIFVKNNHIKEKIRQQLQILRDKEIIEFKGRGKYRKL
Briefly: filter binding.

B1: hmDNA (dsDNA)
DNA 1: ATATGGGATCGTCAGTCAGCG
DNA 2: CGCTGACTGACGATCCCATAT
modifications: m6A in GATC on one strand only (which strand not recoverable from text)
For B1, the binding result in the series with R.DpnI R231A was “no binding”.

B2: nmDNA (dsDNA)
DNA 1: ATATGGGATCGTCAGTCAGCG
DNA 2: CGCTGACTGACGATCCCATAT
On to B2, for which, in the series with R.DpnI R231A, the binding result is reported as “no binding”.

B3: mDNA (dsDNA)
DNA 1: ATATGGGATCGTCAGTCAGCG
DNA 2: CGCTGACTGACGATCCCATAT
modifications: m6A at position 8 of strand 1 and position 13 of strand 2 (5'-3')
In the series with R.DpnI wH domain, B3 yielded a binding signal of 2e+06 counts.
